System: Escherichia coli TOP10
Assay: shrunken log2 fold change of peptide-encoding DNA abundance (4.5 h post-induction vs induction); higher = less antimicrobial activity (less host growth inhibition)
Conditions: time post-induction: 4.5 h; library: site-saturation at positions 5, 18, 19, 20
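Note: peptides expressed intracellularly from a pBAD plasmid library in pooled LB shake-flask culture, induced with 0.3% L-arabinose, DNA abundance read by NGS, three biological replicates, DESeq2 with apeglm shrinkage.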

Row | Sequence | shrunken log2 fold change
1 | RRIRKRPPRLPRPRPRPWAGPRP | 0.115
2 | RRIRDRPPRLPRPRPRPIDNPRP | 0.131
3 | RRIRDRPPRLPRPRPRPQQPPRP | 0.902
4 | RRIRTRPPRLPRPRPRPMCCPRP | -0.182
5 | RRIRLRPPRLPRPRPRPWCWPRP | 0.0542
6 | RRIRFRPPRLPRPRPRPAQRPRP | 0.302
7 | RRIRARPPRLPRPRPRPISWPRP | 0.508
8 | RRIRARPPRLPRPRPRPMRWPRP | 0.618
9 | RRIRMRPPRLPRPRPRPKWGPRP | 0.729
10 | RRIRTRPPRLPRPRPRPIYCPRP | -0.233
11 | RRIRLRPPRLPRPRPRPQNKPRP | -0.432
12 | RRIRLRPPRLPRPRPRPFQGPRP | 0.0498
13 | RRIRGRPPRLPRPRPRPLMCPRP | 0.55
14 | RRIRGRPPRLPRPRPRPYDLPRP | -0.511
15 | RRIRFRPPRLPRPRPRPDPNPRP | -0.072
16 | RRIRMRPPRLPRPRPRPTKHPRP | 0.17
17 | RRIRFRPPRLPRPRPRPMCMPRP | -0.153
18 | RRIRGRPPRLPRPRPRPWGEPRP | 0.285
19 | RRIRQRPPRLPRPRPRPMPQPRP | 0.00445
20 | RRIRIRPPRLPRPRPRPLFYPRP | -0.633
21 | RRIRQRPPRLPRPRPRPKDMPRP | 0.0374
22 | RRIRKRPPRLPRPRPRPHIQPRP | -0.224
23 | RRIRSRPPRLPRPRPRPSFIPRP | -0.661
24 | RRIRPRPPRLPRPRPRPIFNPRP | -0.238
25 | RRIRMRPPRLPRPRPRPICEPRP | 0.241

Row | Sequence | shrunken log2 fold change
26 | RRIRTRPPRLPRPRPRPKCVPRP | -0.138
27 | RRIRPRPPRLPRPRPRPLTHPRP | -0.108
28 | RRIRCRPPRLPRPRPRPTMNPRP | -0.421
29 | RRIRIRPPRLPRPRPRPEAKPRP | 0.0733
30 | RRIRVRPPRLPRPRPRPWHIPRP | -0.127
31 | RRIRDRPPRLPRPRPRPRNYPRP | -0.313
32 | RRIRDRPPRLPRPRPRPFPIPRP | 0.0144
33 | RRIRTRPPRLPRPRPRPYRAPRP | -0.0709
34 | RRIRRRPPRLPRPRPRPVNDPRP | 0.52
35 | RRIRYRPPRLPRPRPRPYHPPRP | -0.152
36 | RRIRWRPPRLPRPRPRPRFCPRP | 0.234
37 | RRIRIRPPRLPRPRPRPNLPPRP | -0.173
38 | RRIRKRPPRLPRPRPRPQHRPRP | 0.148
39 | RRIRMRPPRLPRPRPRPCGTPRP | 1.97
40 | RRIRWRPPRLPRPRPRPACQPRP | 0.015
41 | RRIRHRPPRLPRPRPRPCLRPRP | 0.0119
42 | RRIRTRPPRLPRPRPRPSHNPRP | -0.681
43 | RRIRGRPPRLPRPRPRPVAYPRP | 0.0402
44 | RRIRMRPPRLPRPRPRPIFRPRP | 0.185
45 | RRIRYRPPRLPRPRPRPAFPPRP | -0.139
46 | RRIRGRPPRLPRPRPRPLHCPRP | 0.188
47 | RRIRCRPPRLPRPRPRPKCEPRP | 0.11
48 | RRIRGRPPRLPRPRPRPKEKPRP | 0.0377
49 | RRIRLRPPRLPRPRPRPMWLPRP | -0.0867
50 | RRIRSRPPRLPRPRPRPNGEPRP | 0.0431

Row | Sequence | shrunken log2 fold change
51 | RRIRPRPPRLPRPRPRPREHPRP | 0.121
52 | RRIRCRPPRLPRPRPRPINKPRP | -1.19
53 | RRIRYRPPRLPRPRPRPVHDPRP | -0.372
54 | RRIRVRPPRLPRPRPRPTINPRP | -0.286
55 | RRIRDRPPRLPRPRPRPQWTPRP | 0.448
56 | RRIRRRPPRLPRPRPRPACPPRP | 0.353
57 | RRIRYRPPRLPRPRPRPLKMPRP | -0.26
58 | RRIRNRPPRLPRPRPRPVYYPRP | -0.562
59 | RRIRCRPPRLPRPRPRPWMEPRP | -0.344
60 | RRIRTRPPRLPRPRPRPDKDPRP | -0.0511
61 | RRIRKRPPRLPRPRPRPGWIPRP | 1.07
62 | RRIRTRPPRLPRPRPRPGHMPRP | -0.233
63 | RRIRHRPPRLPRPRPRPLSFPRP | -0.137
64 | RRIRTRPPRLPRPRPRPLGHPRP | -0.459
65 | RRIRVRPPRLPRPRPRPAVTPRP | -0.269
66 | RRIRSRPPRLPRPRPRPTERPRP | 0.142
67 | RRIRKRPPRLPRPRPRPIISPRP | -0.132
68 | RRIRFRPPRLPRPRPRPWIKPRP | -0.187
69 | RRIRVRPPRLPRPRPRPRIAPRP | 0.0659
70 | RRIRKRPPRLPRPRPRPNHLPRP | -0.0502
71 | RRIRCRPPRLPRPRPRPAQCPRP | -0.113
72 | RRIRFRPPRLPRPRPRPEDVPRP | -0.0294
73 | RRIRERPPRLPRPRPRPRYCPRP | -0.516
74 | RRIRKRPPRLPRPRPRPPQMPRP | 0.278
75 | RRIRFRPPRLPRPRPRPNIDPRP | -0.463

Row | Sequence | shrunken log2 fold change
76 | RRIRGRPPRLPRPRPRPIMAPRP | 0.401
77 | RRIRTRPPRLPRPRPRPKHVPRP | -0.658
78 | RRIRLRPPRLPRPRPRPYHKPRP | -0.304
79 | RRIRRRPPRLPRPRPRPPWYPRP | 0.0413
80 | RRIRRRPPRLPRPRPRPQDLPRP | 0.0389
81 | RRIRTRPPRLPRPRPRPHWVPRP | 0.381
82 | RRIRNRPPRLPRPRPRPQTYPRP | -0.375
83 | RRIRYRPPRLPRPRPRPRICPRP | 0.00835
84 | RRIRGRPPRLPRPRPRPVQTPRP | 0.626
85 | RRIRYRPPRLPRPRPRPNFLPRP | -0.623
86 | RRIRDRPPRLPRPRPRPEMLPRP | 1.4
87 | RRIRLRPPRLPRPRPRPERFPRP | 0.219
88 | RRIRGRPPRLPRPRPRPPVQPRP | 0.496
89 | RRIRNRPPRLPRPRPRPWWWPRP | 0.373
90 | RRIRCRPPRLPRPRPRPNVMPRP | -0.337
91 | RRIRGRPPRLPRPRPRPFSWPRP | 0.353
92 | RRIRNRPPRLPRPRPRPYNAPRP | -1.54
93 | RRIRFRPPRLPRPRPRPWMFPRP | -0.451
94 | RRIRMRPPRLPRPRPRPRLEPRP | 0.113
95 | RRIRCRPPRLPRPRPRPFAPPRP | 0.229
96 | RRIRNRPPRLPRPRPRPQMPPRP | -0.334
97 | RRIRWRPPRLPRPRPRPPKDPRP | 0.0853
98 | RRIRYRPPRLPRPRPRPGDTPRP | -0.276
99 | RRIRYRPPRLPRPRPRPLCHPRP | -1.18
100 | RRIRNRPPRLPRPRPRPARDPRP | 0.27

Row | Sequence | shrunken log2 fold change
101 | RRIRYRPPRLPRPRPRPRSIPRP | -0.276
102 | RRIRARPPRLPRPRPRPENEPRP | 0.868
103 | RRIRRRPPRLPRPRPRPCSSPRP | 0.0589
104 | RRIRRRPPRLPRPRPRPQSHPRP | -0.0536
105 | RRIRKRPPRLPRPRPRPGHNPRP | -0.0457
106 | RRIRLRPPRLPRPRPRPYHDPRP | -0.131
107 | RRIRRRPPRLPRPRPRPSVKPRP | 0.155
108 | RRIRQRPPRLPRPRPRPDEYPRP | 0.0131
109 | RRIRGRPPRLPRPRPRPSGPPRP | -0.0342
110 | RRIRRRPPRLPRPRPRPVLAPRP | 0.83
111 | RRIRFRPPRLPRPRPRPMITPRP | -0.33
112 | RRIRLRPPRLPRPRPRPCNDPRP | -0.101
113 | RRIRHRPPRLPRPRPRPYHEPRP | -0.0135
114 | RRIRMRPPRLPRPRPRPDFWPRP | 0.778
115 | RRIRARPPRLPRPRPRPDNIPRP | -0.256
116 | RRIRNRPPRLPRPRPRPWARPRP | 0.0712
117 | RRIRNRPPRLPRPRPRPWFEPRP | -0.879
118 | RRIRYRPPRLPRPRPRPNPHPRP | -0.639
119 | RRIRQRPPRLPRPRPRPPVLPRP | 0.155
120 | RRIRSRPPRLPRPRPRPWDTPRP | -0.0299
121 | RRIRKRPPRLPRPRPRPEYEPRP | 0.0698
122 | RRIRHRPPRLPRPRPRPLEYPRP | -0.168
123 | RRIRLRPPRLPRPRPRPHNMPRP | -0.495
124 | RRIRSRPPRLPRPRPRPTDHPRP | -0.339
125 | RRIRNRPPRLPRPRPRPGEKPRP | -0.01

Row | Sequence | shrunken log2 fold change
126 | RRIRCRPPRLPRPRPRPPYRPRP | -0.0439
127 | RRIRQRPPRLPRPRPRPWKDPRP | -0.0211
128 | RRIRERPPRLPRPRPRPPHTPRP | -0.152
129 | RRIRLRPPRLPRPRPRPQWFPRP | -0.0962
130 | RRIRIRPPRLPRPRPRPVLIPRP | -0.469
131 | RRIRYRPPRLPRPRPRPGRNPRP | 0.191
132 | RRIRHRPPRLPRPRPRPATDPRP | -0.185
133 | RRIRERPPRLPRPRPRPRQFPRP | -0.174
134 | RRIRVRPPRLPRPRPRPPTSPRP | 0.101
135 | RRIRVRPPRLPRPRPRPSNKPRP | -0.751
136 | RRIRRRPPRLPRPRPRPPDYPRP | 0.244
137 | RRIRMRPPRLPRPRPRPASWPRP | 0.901
138 | RRIRWRPPRLPRPRPRPMCGPRP | 0.205
139 | RRIRPRPPRLPRPRPRPSSLPRP | 0.0404
140 | RRIRWRPPRLPRPRPRPPTLPRP | 0.315
141 | RRIRQRPPRLPRPRPRPTAMPRP | 0.0174
142 | RRIRSRPPRLPRPRPRPEDPPRP | 0.931
143 | RRIRIRPPRLPRPRPRPRVQPRP | 0.0871
144 | RRIRDRPPRLPRPRPRPPVNPRP | 0.519
145 | RRIRRRPPRLPRPRPRPQSMPRP | 0.0695
146 | RRIRTRPPRLPRPRPRPEKPPRP | 0.0634
147 | RRIRTRPPRLPRPRPRPHWMPRP | -0.243
148 | RRIRPRPPRLPRPRPRPTIDPRP | -0.454
149 | RRIRKRPPRLPRPRPRPKYTPRP | -0.113
150 | RRIRKRPPRLPRPRPRPQHIPRP | -0.243
